Experimental data published in PMC6430685 (Nature chemical biology, 2019).
No end group written: not given here. *: point of attachment. FITC = O=C1OC2(c3ccc(O)cc3Oc3cc(O)ccc32)c2ccc(NC(=S)*)cc21; Ahx = NCCCCCC(=O)O

Target: Human full-length (1-192) wild type BAX (human, UniProt Q07812 1-192)
Test: fluorescence polarisation

Sequence of Human full-length (1-192) wild type BAX (Q07812 whole entry): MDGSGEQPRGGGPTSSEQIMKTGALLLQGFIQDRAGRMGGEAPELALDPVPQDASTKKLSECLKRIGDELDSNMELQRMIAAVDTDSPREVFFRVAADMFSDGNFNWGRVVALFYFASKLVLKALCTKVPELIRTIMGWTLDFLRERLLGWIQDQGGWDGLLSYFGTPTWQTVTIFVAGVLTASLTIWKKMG

**Q.** Does {FITC-Ahx}-CEALKKALRRHRFLWQRRQRA [vMIA peptide, FITC-Ahx-CEALKKALRRHRFLWQRRQRA] bind?
**A.** binds
